Measurements as given in patent US20250320312A1 (OXITOPE PHARMA B V, published 2025).

T1: Peptide 8: Biotin-AEAAAKEAAAKEAAAKEAAAKAAA-Tyr-acid (N-terminal biotin; C-terminal acid; no PC)
T1 construct: control peptide without PC
T1 peptide: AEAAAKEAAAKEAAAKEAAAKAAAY

T2: Peptide 4: Biotin-AGGGGSGGGGSGGGGSAAA-Tyr-acid (N-terminal biotin; C-terminal acid; no PC)
T2 construct: control peptide without PC
T2 peptide: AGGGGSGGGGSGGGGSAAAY


Tests used:
Experiment in all cases: scFv ELISA
[1] = target: Peptide 1: Biotin-…-[Tyr(PC)]-acid
BSA = BSA (UniProt P02769)
[2] = target: Peptide 5: Biotin-…-[Tyr(PC)]-acid
[3] = target: T1, Peptide 8: …
Summary of the method: (§1)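 Bound scFv was read as OD450 after HRP–anti-V5 detection, TMB development and HCl stop. PPE with BSA was incubated 1 h at RT on BSA-blocked wells coated overnight at 4° C. with peptide, or on streptavidin wells loaded 1 h with biotinylated PC-peptides at 1 μg/mL.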

[4] = target: T2, Peptide 4: …
Summary of the method: as §1

Chain of BSA (P02769 25-607 limits assumed): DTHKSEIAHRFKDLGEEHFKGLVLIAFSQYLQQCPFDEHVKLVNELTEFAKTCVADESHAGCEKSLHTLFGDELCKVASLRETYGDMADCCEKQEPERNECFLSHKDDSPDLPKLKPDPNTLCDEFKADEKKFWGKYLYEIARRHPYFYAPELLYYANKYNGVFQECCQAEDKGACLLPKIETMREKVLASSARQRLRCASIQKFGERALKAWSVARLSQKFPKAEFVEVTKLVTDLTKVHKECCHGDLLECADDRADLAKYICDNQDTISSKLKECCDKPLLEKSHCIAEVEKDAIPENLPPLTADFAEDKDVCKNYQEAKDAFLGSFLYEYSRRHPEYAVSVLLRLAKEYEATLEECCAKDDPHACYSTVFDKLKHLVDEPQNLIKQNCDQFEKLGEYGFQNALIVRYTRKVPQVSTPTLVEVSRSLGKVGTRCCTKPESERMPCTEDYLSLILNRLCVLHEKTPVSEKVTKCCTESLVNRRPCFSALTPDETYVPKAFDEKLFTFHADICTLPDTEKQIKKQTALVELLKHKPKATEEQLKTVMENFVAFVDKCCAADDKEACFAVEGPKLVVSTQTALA

Binder | OD450 [1] [OD450] | OD450 (BSA) [OD450] | OD450 [2] [OD450] | OD450 [3] [OD450] | OD450 [4] [OD450]
PcOxP_DB01_F01 (scFv, V domains shown, scFv in periplasmic extract) VH: EVQLLESGGGLVQPGGSLRLSCAASGFPFSDFYMEWVRQAPGKGLEWVAASRNKANDYTTEYADSVKGRFTISRDNSKNTLYLQMNSLRAEDTAVYYCARDYYGSPYWYFDVWGQGTLVTVSS VL: DIVMTQSPDSLAVSLGERATINCTASESVYSSKNKKHYLAWYQQKPGQPPKLLIYGASNRYIGVPDRFSGSGSGTDFTLTISSLQAEDVAVYYCAQFYTYPLTFGGGTKVEIK | 0.6 | 0.08 | 1.78 | 0.05 | 0.05
PcOxP_DB01_F03 (scFv, V domains shown, scFv in periplasmic extract) VH: EVQLLESGGGLVQPGGSLRLSCAASGFTFSDSYMEWVRQAPGKGLEWVAASRNKYNDYTTEYADSVKGRFTISRDNSKNTLYLQMNSLRAEDTAVYYCARDYYGSSYWYFDVWGQGTLVTVSS VL: DIVMTQSPDSLAVSLGERATINCTASESLYSSKHKVHYLAWYQQKPGQPPKLLIYGASNRYIGVPDRFSGSGSGTDFTLTISSLQAEDVAVYYCAQFYSYPLTFGGGTKVEIK | 0.8 | 0.08 | 1.41 | 0.08 | 0.07
PcOxP_DB01_F11 (scFv, V domains shown, scFv in periplasmic extract) VH: EVQLLESGGGLVQPGGSLRLSCAASGFTFSSYYMEWVRQAPGKGLEWVAASRNKANDYTTEYADSVKGRFTISRDNSKNTLYLQMNSLRAEDTAVYYCARDYYGSSYWYYDVWGQGTLVTVSS VL: DIVMTQSPDSLAVSLGERATINCTASESLYSSKHKVHYLAWYQQKPGQPPKLLIYGASNRYIGVPDRFSGSGSGTDFTLTISSLQAEDVAVYYCAQFYSYPLTFGGGTKVEIK | 1.55 | 0.07 | 1.92 | 0.05 | 0.07
PcOxP_DB01_E09 (scFv, V domains shown, scFv in periplasmic extract) VH: EVQLLESGGGLVQPGGSLRLSCAASGNTFSDFYMEWVRQAPGKGLEWVAASRNKANDYTTEYADSVKGRFTISRDNSKNTLYLQMNSLRAEDTAVYYCARDYYGSSYWYFDVWGQGTLVTVSS VL: DIVMTQSPDSLAVSLGERATINCTASESLYSSKHKVHYLAWYQQKPGQPPKLLIYGASNRYIGVPDRFSGSGSGTDFTLTISSLQAEDVAVYYCANFYSYPLTFGGGTKVEIK | 0.77 | 0.06 | 1.26 | 0.04 | 0.04
PcOxP_DB01_G02 (scFv, V domains shown, scFv in periplasmic extract) VH: EVQLLESGGGLVQPGGSLRLSCAASGFLFSDFYMEWVRQAPGKGLEWVAASRNKANDYTTTYADSVKGRFTISRDNSKNTLYLQMNSLRAEDTAVYYCARDYYGSHYWYFDVWGQGTLVTVSS VL: DIVMTQSPDSLAVSLGERATINCTASESLYSSKHKVHYLAWYQQKPGQPPKLLIYGASNREIGVPDRFSGSGSGTDFTLTISSLQAEDVAVYYCAQFYFYPLTFGGGTKVEIK | 0.82 | 0.06 | 1.2 | 0.04 | 0.05
PcOxP_DB01_F07 (scFv, V domains shown, scFv in periplasmic extract) VH: EVQLLESGGGLVQPGGSLRLSCAASGDTFSDFYLEWVRQAPGKGLEWVAASRNKANGYTTEYADSVKGRFTISRDNSKNTLYLQMNSLRAEDTAVYYCARDYYHSSYWYFDVWGQGTLVTVSS VL: DIVMTQSPDSLAVSLGERATINCTASESLYSSKHKVHYLAWYQQKPGQPPKLLIYGASNRYIGVPDRFSGSGSGTDFTLTISSLQAEDVAVYYCAHFYSYPLTFGGGTKVEIK | 0.31 | 0.06 | 0.81 | 0.04 | 0.04
PcOxP_DB01_F06 (scFv, V domains shown, scFv in periplasmic extract) VH: EVQLLESGGGLVQPGGSLRLSCAASGDTFSDFYMEWVRQAPGKGLEWVAASRNKANDYTTEYADSVKGRFTISRDNSKNTLYLQMNSLRAEDTAVYYCARDYYGSSYWYFDVWGQGTLVTVSS VL: DIVMTQSPDSLAVSLGERATINCKSSQSLYYSSNKKNYLAWYQQKPGQPPKLLIYGASNRYGGVPDRFSGSGSGTDFTLTISSLQAEDVAVYYCAQFYRYPLTFGGGTKVEIK | 0.12 | 0.07 | 0.53 | 0.04 | 0.04
PcOxP_DB01_F08 (scFv, V domains shown, scFv in periplasmic extract) VH: EVQLLESGGGLVQPGGSLRLSCAASGFTFSDGYMEWVRQAPGKGLEWVAASRNKWNDYTTEYADSVKGRFTISRDNSKNTLYLQMNSLRAEDTAVYYCARDYYGSSYWYFDVWGQGTLVTVSS VL: DIVMTQSPDSLAVSLGERATINCTASESLYSSKHKVHYLAWYQQKPGQPPKLLIYGASNRYSGVPDRFSGSGSGTDFTLTISSLQAEDVAVYYCAQFYSYPLTFGGGTKVEIK | 0.52 | 0.06 | 1.22 | 0.04 | 0.04
PcOxP_DB01_F12 (scFv, V domains shown, scFv in periplasmic extract) VH: EVQLLESGGGLVQPGGSLRLSCAASGFTHSDFYMEWVRQAPGKGLEWVAASRNKANGYTTEYADSVKGRFTISRDNSKNTLYLQMNSLRAEDTAVYYCARDYYGSSYWYFDSWGQGTLVTVSS VL: DIVMTQSPDSLAVSLGERATINCTASESLYSSKHKVHYLAWYQQKPGQPPKLLIYGASNRYVGVPDRFSGSGSGTDFTLTISSLQAEDVAVYYCAQFYSYPLTFGGGTKVEIK | 0.76 | 0.06 | 1.43 | 0.05 | 0.05
PcOxP_DB01_G07 (scFv, V domains shown, scFv in periplasmic extract) VH: EVQLLESGGGLVQPGGSLRLSCAASGFTFSDYYMEWVRQAPGKGLEWVAASRNKYNDYTTEYADSVKGRFTISRDNSKNTLYLQMNSLRAEDTAVYYCARDYYGSSYWYFDVWGQGTLVTVSS VL: DIVMTQSPDSLAVSLGERATINCTASESLYGSKHKVHYLAWYQQKPGQPPKLLIYGASNRYIGVPDRFSGSGSGTDFTLTISSLQAEDVAVYYCAQFYSYPLTFGGGTKVEIK | 0.46 | 0.07 | 1.2 | 0.04 | 0.05

Continued, values first:

OD450 [1] [OD450] | OD450 (BSA) [OD450] | OD450 [2] [OD450] | OD450 [3] [OD450] | OD450 [4] [OD450] | Binder
0.87 | 0.07 | 1.51 | 0.05 | 0.05 | PcOxP_DB01_E07 (scFv, V domains shown, scFv in periplasmic extract) VH: EVQLLESGGGLVQPGGSLRLSCAASGFTFSSYYMEWVRQAPGKGLEWVAASRNKANDYTTEYADSVKGRFTISRDNSKNTLYLQMNSLRAEDTAVYYCARDYYGSSYWYFDVWGQGTLVTVSS VL: DIVMTQSPDSLAVSLGERATINCTASESLYSSKHKVDYLAWYQQKPGQPPKLLIYGASNRYIGVPDRFSGSGSGTDFTLTISSLQAEDVAVYYCAQFYSYPLTFGGGTKVEIK
0.47 | 0.06 | 0.82 | 0.04 | 0.05 | PcOxP_DB01_E08 (scFv, V domains shown, scFv in periplasmic extract) VH: EVQLLESGGGLVQPGGSLRLSCAASGDTFSDFYMEWVRQAPGKGLEWVAASRNKANAYTTEYADSVKGRFTISRDNSKNTLYLQMNSLRAEDTAVYYCARDYYGQSYWYFDVWGQGTLVTVSS VL: DIVMTQSPDSLAVSLGERATINCTASESLYSSKHKVHYLAWYQQKPGQPPKLLIYGASNRYIGVPDRFSGSGSGTDFTLTISSLQAEDVAVYYCAQFYSYPLTFGGGTKVEIK
0.73 | 0.06 | 1.32 | 0.04 | 0.05 | PcOxP_DB01_G06 (scFv, V domains shown, scFv in periplasmic extract) VH: EVQLLESGGGLVQPGGSLRLSCAASGFTFSDYYMEWVRQAPGKGLEWVAASRNKWNDYTTEYADSVKGRFTISRDNSKNTLYLQMNSLRAEDTAVYYCARDYYGSSYWYFDVWGQGTLVTVSS VL: DIVMTQSPDSLAVSLGERATINCTASESLYSSKHKVHYLAWYQQKPGQPPKLLIYGASNRYSGVPDRFSGSGSGTDFTLTISSLQAEDVAVYYCAQFYSYPLTFGGGTKVEIK
0.69 | 0.08 | 1.24 | 0.05 | 0.05 | PcOxP_DB01_G05 (scFv, V domains shown, scFv in periplasmic extract) VH: EVQLLESGGGLVQPGGSLRLSCAASGFTFSSYYMEWVRQAPGKGLEWVAASRNKANEYTTEYADSVKGRFTISRDNSKNTLYLQMNSLRAEDTAVYYCARDYYGSSYWYFDVWGQGTLVTVSS VL: DIVMTQSPDSLAVSLGERATINCTASESLYSSKHKVHYLAWYQQKPGQPPKLLIYGASNRYIGVPDRFSGSGSGTDFTLTISSLQAEDVAVYYCANFYSYPLTFGGGTKVEIK
0.43 | 0.07 | 0.94 | 0.05 | 0.05 | PcOxP_DB01_G03 (scFv, V domains shown, scFv in periplasmic extract) VH: EVQLLESGGGLVQPGGSLRLSCAASGFTFSDGYMEWVRQAPGKGLEWVAASRNKANDYTTEYADSVKGRFTISRDNSKNTLYLQMNSLRAEDTAVYYCARDYYGSSYWYFDVWGQGTLVTVSS VL: DIVMTQSPDSLAVSLGERATINCTASTSLYSSKHKVHYLAWYQQKPGQPPKLLIYGASNRYIGVPDRFSGSGSGTDFTLTISSLQAEDVAVYYCAQFYTYPLTFGGGTKVEIK
0.56 | 0.07 | 1.01 | 0.07 | 0.05 | PcOxP_DB01_G04 (scFv, V domains shown, scFv in periplasmic extract) VH: EVQLLESGGGLVQPGGSLRLSCAASGFTFSDGYMEWVRQAPGKGLEWVAASRNKANDYTTEYADSVKGRFTISRDNSKNTLYLQMNSLRAEDTAVYYCARDYYGSSYWYFDVWGQGTLVTVSS VL: DIVMTQSPDSLAVSLGERATINCTASESLYSSKHKVHYLAWYQQKPGQPPKLLIYGASNRYSGVPDRFSGSGSGTDFTLTISSLQAEDVAVYYCAQFYSYPLTFGGGTKVEIK
